In US20210047402A1 (published 2021):
Positions count from the first letter of the chain named. Like-named read-outs stand apart in the source and are kept apart here.

B1: anti-CD22 heavy chain-only antibody Clone ID 335179 (antibody, V domains shown)
VH: QLQLQESGPGLVKPSETLSLTCTVSGGSISSSSYYWGWFRHPPGKGLDWIGSIHYSGSTYYNPSLKSRVTISVDTSRNQFSLNLSSVTAADTAVYYCTRDDSSNWRSRGQGTLVTVSS
B2: anti-CD22 heavy chain-only antibody Clone ID 335293 (antibody, V domains shown)
VH: QLQLQESGPGLVKPSETLSLTCTVSGDSISSGDYYWGWIRQPPGKGLEWIGHIYYSGATYYNPSLKNRVTISVDTSRNQFSLKLSSVTAADTAVYYCTREDSSSWRSRGQGTLVTVSS
B3: anti-CD22 heavy chain-only antibody Clone ID 335195 (antibody, V domains shown)
VH: B2 VH with D27G, G32S, D33S, H52S, K83N, V94M, S104N
B4: anti-CD22 heavy chain-only antibody Clone ID 335166 (antibody, V domains shown)
VH: B1 VH with F39I, H41Q, D48E, H54Y, S67N
B5: anti-CD22 heavy chain-only antibody Clone ID 335161 (antibody, V domains shown)
VH: B2 VH with K66E, R77K, E100D, S104N
B6: anti-CD22 heavy chain-only antibody Clone ID 335244 (antibody, V domains shown)
VH: B2 VH with K83N
B7: anti-CD22 heavy chain-only antibody Clone ID 335295 (antibody, V domains shown)
VH: B2 VH with D27G, G32S, D33S, H52S, K83N
B8: anti-CD22 heavy chain-only antibody Clone ID 335301 (antibody, V domains shown)
VH: B2 VH with H52N, R77K
B9: anti-CD22 heavy chain-only antibody Clone ID 335297 (antibody, V domains shown)
VH: B2 VH with D27G, G32S, D33S, K83N
B10: anti-CD22 heavy chain-only antibody Clone ID 335274 (antibody, V domains shown)
VH: B1 VH with F39I, H41Q, D48E, H54Y, D100E, N104S
B11: anti-CD22 heavy chain-only antibody Clone ID 335224 (antibody, V domains shown)
VH: B2 VH with H52S, S56T, A58S, N67S, R77K, S104N
B12: anti-CD22 heavy chain-only antibody Clone ID 335260 (antibody, V domains shown)
VH: B2 VH with A58V, K83N
B13: anti-CD22 heavy chain-only antibody Clone ID 335158 (antibody, V domains shown)
VH: B2 VH with D27G, E100D, S104N
B14: anti-CD22 heavy chain-only antibody Clone ID 335182 (antibody, V domains shown)
VH: B2 VH with H52N, R77K, E100D, S104N
B15: anti-CD22 heavy chain-only antibody Clone ID 335176 (antibody, V domains shown)
VH: B2 VH with R77K, E100D, S104N
B16: anti-CD22 heavy chain-only antibody Clone ID 335233 (antibody, V domains shown)
VH: B2 VH with H52S, A58S, N67S, R77K, S104N
B17: anti-CD22 heavy chain-only antibody Clone ID 335210 (antibody, V domains shown)
VH: B2 VH with D27G, S104N
B18: anti-CD22 heavy chain-only antibody Clone ID 335333 (antibody, V domains shown)
VH: B2 VH with D27G, G32S, D33S, H52S, A58S, N67S, R77K, T98A
B19: anti-CD22 heavy chain-only antibody Clone ID 335230 (antibody, V domains shown)
VH: B2 VH with G8D, D27G, G32S, D33S, Y34H, K83N, S104N
B20: anti-CD22 heavy chain-only antibody Clone ID 335154 (antibody, V domains shown)
VH: B2 VH with A58V, R77K, E100D, S104N
B21: anti-CD22 heavy chain-only antibody Clone ID 335185 (antibody, V domains shown)
VH: B2 VH with K83N, S104N
B22: anti-CD22 heavy chain-only antibody Clone ID 335283 (antibody, V domains shown)
VH: B2 VH with D27G, G32S, D33S, H52S, R77K
B23: anti-CD22 heavy chain-only antibody Clone ID 335219 (antibody, V domains shown)
VH: B2 VH with D27G, G32S, D33S, H52S, A58V, R77K, S104N
B24: anti-CD22 heavy chain-only antibody Clone ID 335181 (antibody, V domains shown)
VH: B2 VH with D33G, R77K, E100D, S104N
B25: anti-CD22 heavy chain-only antibody Clone ID 335207 (antibody, V domains shown)
VH: B2 VH with A58V, N67S, S104N
B26: anti-CD22 heavy chain-only antibody Clone ID 335151 (antibody, V domains shown)
VH: B2 VH with K83N, E100D, S104N
B27: anti-CD22 heavy chain-only antibody Clone ID 335323 (antibody, V domains shown)
VH: B2 VH with D33G, H52S, A58S, R77K
B28: anti-CD22 heavy chain-only antibody Clone ID 335236 (antibody, V domains shown)
VH: B1 VH with F39I, H41Q, D48E, H54Y, R77K, N83K, D100E
B29: anti-CD22 heavy chain-only antibody Clone ID 335150 (antibody, V domains shown)
VH: B2 VH with P42S, G44E, A58V, R77K, T98K, E100D, S104N
B30: anti-CD22 heavy chain-only antibody Clone ID 335160 (antibody, V domains shown)
VH: B2 VH with H52S, R77K, E100D, S104N
B31: anti-CD22 heavy chain-only antibody Clone ID 335218 (antibody, V domains shown)
VH: B2 VH with S104N
B32: anti-CD22 heavy chain-only antibody Clone ID 335316 (antibody, V domains shown)
VH: B2 VH with D27G, G32S, D33S, R77K
B33: anti-CD22 heavy chain-only antibody Clone ID 335261 (antibody, V domains shown)
VH: B2 VH with K66E, R77K
B34: anti-CD22 heavy chain-only antibody Clone ID 335273 (antibody, V domains shown)
VH: B2 VH with D27G, G32S, D33S, H52S, A58S, N67S, R77K
B35: anti-CD22 heavy chain-only antibody Clone ID 335206 (antibody, V domains shown)
VH: B2 VH with R77K, S104N
B36: anti-CD22 heavy chain-only antibody Clone ID 335203 (antibody, V domains shown)
VH: B2 VH with A58V, R77K, S104N
B37: anti-CD22 heavy chain-only antibody Clone ID 335220 (antibody, V domains shown)
VH: B2 VH with D27G, G32S, D33S, H52S, A58S, R77K, S104N
B38: anti-CD22 heavy chain-only antibody Clone ID 335266 (antibody, V domains shown)
VH: B2 VH with K13R, D27G, G32S, D33S, H52S, A58S, N67S, R77K
B39: anti-CD22 heavy chain-only antibody Clone ID 335234 (antibody, V domains shown)
VH: B2 VH with H52N, R77K, S104N
B40: anti-CD22 heavy chain-only antibody Clone ID 335208 (antibody, V domains shown)
VH: B2 VH with D27G, G32S, D33S, H52S, K83N, S104N
B41: anti-CD22 heavy chain-only antibody Clone ID 335189 (antibody, V domains shown)
VH: B2 VH with D27G, G32S, D33S, H52S, I53V, S56T, R77K, E100D, S104N
B42: anti-CD22 heavy chain-only antibody Clone ID 335187 (antibody, V domains shown)
VH: B2 VH with D27G, G32S, D33S, R77K, E100D, S104N
B43: anti-CD22 heavy chain-only antibody Clone ID 335285 (antibody, V domains shown)
VH: B2 VH with D27G, G32S, D33S, H52S, A58V, R77K
B44: anti-CD22 heavy chain-only antibody Clone ID 335271 (antibody, V domains shown)
VH: B2 VH with Q41H, R77K
B45: anti-CD22 heavy chain-only antibody Clone ID 335245 (antibody, V domains shown)
VH: B2 VH with R77K
B46: anti-CD22 heavy chain-only antibody Clone ID 335173 (antibody, V domains shown)
VH: B1 VH with S30T, F39I, H41Q, D48E, H54Y, R77K, N83K
B47: anti-CD22 heavy chain-only antibody Clone ID 335226 (antibody, V domains shown)
VH: B2 VH with G32S, D33S, H52S, A58S, N67S, R77K, S104N
B48: anti-CD22 heavy chain-only antibody Clone ID 335170 (antibody, V domains shown)
VH: B2 VH with E100D, S104N
B49: anti-CD22 heavy chain-only antibody Clone ID 335242 (antibody, V domains shown)
VH: B2 VH with D27G, G32S, D33S, K83N, S104N
B50: anti-CD22 heavy chain-only antibody Clone ID 335188 (antibody, V domains shown)
VH: B2 VH with D27G, G32S, D33S, A58V, R77K, E100D, S104N
B51: anti-CD22 heavy chain-only antibody Clone ID 324508 (antibody, V domains shown)
VH: B2 VH with D27G, K66E, R77K, E100D, S104N
B52: anti-CD22 heavy chain-only antibody Clone ID 335307 (antibody, V domains shown)
VH: B2 VH with H52S, A58S, N67S, R77K
B53: anti-CD22 heavy chain-only antibody Clone ID 335186 (antibody, V domains shown)
VH: B1 VH with F39I, H41Q, D48E, H54Y, R77K, N83K
B54: anti-CD22 heavy chain-only antibody Clone ID 335254 (antibody, V domains shown)
VH: B2 VH with A58V, R77K
B55: anti-CD22 heavy chain-only antibody Clone ID 335159 (antibody, V domains shown)
VH: B2 VH with D27G, G32S, D33S, A58V, R77K, V94A, E100D, S104N
B56: anti-CD22 heavy chain-only antibody Clone ID 335311 (antibody, V domains shown)
VH: QLQLQESGPGLVKPSETLSLTCAVYGGSFSGYYWGWIRQPPGKGLEWIGHIYYSGATYYNPSLKNRVTISVDTSRNQFSLNLSSVTAADTAVYYCTREDSSSWRSRGQGTLVTVSS
B57: anti-CD22 heavy chain-only antibody Clone ID 335162 (antibody, V domains shown)
VH: QLQLQESGPGLVKPSETLSLTCTVSGGSIISSSYYWGWIRQPPGKGLEWIGSIYYSGSAYYHPSLKSRVTISIDTSKNQFSLKLSSVTAADTAVYYCARDDSSNWRSRGQGTLVTVSS

Legend:
[1] = target: T1, human CD22 (human, UniProt P20273 20-687); test: BLI
T1 sequence (P20273 20-687): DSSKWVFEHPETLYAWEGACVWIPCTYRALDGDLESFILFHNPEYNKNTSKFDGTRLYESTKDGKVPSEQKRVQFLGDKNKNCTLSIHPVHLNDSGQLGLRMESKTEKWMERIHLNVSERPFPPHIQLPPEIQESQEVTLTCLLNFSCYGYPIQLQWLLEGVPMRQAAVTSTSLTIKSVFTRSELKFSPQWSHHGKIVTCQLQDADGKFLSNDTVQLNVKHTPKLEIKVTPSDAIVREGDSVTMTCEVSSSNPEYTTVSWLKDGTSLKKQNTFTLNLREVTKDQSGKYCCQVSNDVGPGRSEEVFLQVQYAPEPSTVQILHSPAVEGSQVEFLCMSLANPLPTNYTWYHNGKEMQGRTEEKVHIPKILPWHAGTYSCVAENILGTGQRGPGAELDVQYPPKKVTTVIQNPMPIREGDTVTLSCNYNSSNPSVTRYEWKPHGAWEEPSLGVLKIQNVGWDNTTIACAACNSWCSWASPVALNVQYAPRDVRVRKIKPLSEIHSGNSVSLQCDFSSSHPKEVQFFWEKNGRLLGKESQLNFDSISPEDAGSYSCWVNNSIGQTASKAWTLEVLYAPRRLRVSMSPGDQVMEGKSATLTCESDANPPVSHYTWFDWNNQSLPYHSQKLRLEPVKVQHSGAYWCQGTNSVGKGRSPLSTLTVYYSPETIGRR
Method in brief: (§1)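 Heavy chain-only antibodies were loaded at 5 μg/mL for 120 seconds onto anti-human IgG Fc capture biosensors on an Octet QK-384, using 1×PBS, 0.1% BSA, 0.02% Tween-20, pH 7.2 buffer. Human CD22 protein was applied in a 7-point 1:2 dilution series beginning at 250 nM, alongside a buffer-only reference well, and the data were fit to a 1:1 binding model in Octet Data Analysis v9.0. Kd, the affinity measure from this biolayer interferometry assay, was obtained as koff/kon.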

[2] = target: T1, human CD22; test: BLI; remark: listed apart in the source
Method in brief: as §1

Binder | Kd [1] [nM] | Kd [2] [nM]
B1 | 148 | –
B2 | – | 7.41
B3 | 150 | –
B4 | 33 | –
B5 | – | 2.66
B6 | – | 5.07
B7 | 31.6 | –
B8 | – | 12.6
B9 | 28.8 | –
B10 | 23.6 | –
B11 | 23.4 | –
B12 | – | 3.17
B13 | – | 42.3
B14 | – | 22.4
B15 | – | 4.62
B16 | 19 | –
B17 | 62.5 | –
B18 | 22.4 | –
B19 | 75.2 | –

Binder | Kd [1] [nM] | Kd [2] [nM]
B20 | – | 5.41
B21 | – | 8.43
B22 | 36.9 | –
B23 | 90.6 | –
B24 | – | 9.44
B25 | – | 3.24
B26 | – | 3.77
B27 | – | 14.1
B28 | 27.3 | –
B29 | 14.1 | –
B30 | – | 8.51
B31 | – | 8.91
B32 | 23.5 | –
B33 | – | 5.27
B34 | 42.2 | –
B35 | – | 7.53
B36 | – | 6.8
B37 | 48.2 | –
B38 | 38.5 | –

Binder | Kd [1] [nM] | Kd [2] [nM]
B39 | – | 12.4
B40 | 58.4 | –
B41 | 36 | –
B42 | 128 | –
B43 | 114 | –
B44 | – | 21.6
B45 | – | 7.44
B46 | 30.5 | –
B47 | 25.5 | –
B48 | – | 6.5
B49 | 79.7 | –
B50 | 53 | –
B51 | – | 12.5
B52 | – | 10.3
B53 | 17.6 | –
B54 | – | 2.83
B55 | 16.1 | –
B56 | 2.66 | –
B57 | 99.6 | –
